The values that follow come from patent US7485712.

For test [1], the target named is microtubules assembled from porcine brain PC-tubulin (not taxol-stabilised) (porcine) (UniProt P02550). The experiment in a line: cell-based or functional assay.
Test [2] deals with taxol-stabilised microtubules (porcine brain tubulin) (porcine) (UniProt P02550). The experiment in a line: binding to taxol stabilized microtubules (30 µM tubulin dimers) after p110MARK phosphorylation.
Test [3] has the same target. Briefly: binding to taxol stabilized microtubules (30 µM tubulin dimers), binding curve.

Chain of MAP4, phosphorylated with NPK-110 (P27546 630-1125): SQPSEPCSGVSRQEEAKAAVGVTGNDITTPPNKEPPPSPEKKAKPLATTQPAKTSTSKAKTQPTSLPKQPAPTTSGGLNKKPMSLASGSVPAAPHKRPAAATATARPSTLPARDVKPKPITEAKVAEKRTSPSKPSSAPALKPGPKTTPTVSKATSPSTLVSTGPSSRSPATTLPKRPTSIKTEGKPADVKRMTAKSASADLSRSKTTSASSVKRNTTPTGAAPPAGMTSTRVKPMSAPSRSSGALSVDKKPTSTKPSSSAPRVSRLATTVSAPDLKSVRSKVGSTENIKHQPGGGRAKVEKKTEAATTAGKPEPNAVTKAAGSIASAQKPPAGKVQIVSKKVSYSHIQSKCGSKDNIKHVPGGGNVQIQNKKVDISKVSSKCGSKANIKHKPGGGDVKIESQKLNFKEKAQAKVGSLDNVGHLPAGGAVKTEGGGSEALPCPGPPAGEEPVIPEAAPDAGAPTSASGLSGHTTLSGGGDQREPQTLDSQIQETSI

Take MAP4, phosphorylated with NPK-110: in test [1], the mean length of microtubules, against the control without ATP (fold of control) was found to be 0.5.
In general, Kd refers to the concentration at which binding is half-saturated. A lower Kd goes with a tighter complex. Turning to MAP2cA350, phosphorylated with p110MARK, the Kd in test [2] came out at 7 µM. In other words, the single-digit micromolar range.
Take “recombinant wild type MAP2c, non-phosphorylated”: in test [3], the dissociation constant Kd was 0.25 µM, the saturation was 17 µM and the stoichiometry (MAP2c molecules per tubulin dimer) is 0.5.
Consider MAP2, phosphorylated with NPK-110, for which the mean length of microtubules, against the control without ATP (fold of control) in test [1] worked out at 0.5.
On the same count and under the same terms, to “recombinant wild type MAP2c, phosphorylated with p110MARK (NPK-110)” belongs 0.5.
In the case of MAP2cA319, phosphorylated with p110MARK, in test [2], the Kd came out at 7 µM.
